Results published in patent US20210380680A1 (ZLLP, published 2021).
Where a chain is given by its changes, count along the chain named. Names and notes keep the numbering of the source. Read-outs that look alike come from different tables or passages of the source. Each block holds one binder with its values, some of them ahead of it.

Experiments:
[1] = biological target: T1, human Claudin 18.2 (CLDN18.2) (human, UniProt P56856-2 1-261); test: cell-based or functional assay
[2] = biological target: T1, human Claudin 18.2 (CLDN18.2); test: cell-based or functional assay; remark: listed apart in the source
[3] = biological target: T1, human Claudin 18.2 (CLDN18.2); test: cell-based or functional assay; remark: listed apart in the source
[4] = biological target: T1, human Claudin 18.2 (CLDN18.2); test: FACS on CHO-CLDN18.2 cells
[5] = biological target: T1, human Claudin 18.2 (CLDN18.2); test: FACS on CHO-CLDN18.2 cells; remark: listed apart in the source
[6] = biological target: T1, human Claudin 18.2 (CLDN18.2); test: FACS on CHO-CLDN18.2 cells; remark: listed apart in the source
[7] = biological target: T2, CLDN18.2 endogenously expressed on SNU620 gastric cancer cells (UniProt P56856-2 1-261, limits assumed); test: FACS Exp. 3, SNU620 cells
T2 construct: whole, on cells; also called SU620

[8] = biological target: T1, human Claudin 18.2 (CLDN18.2); test: FACS Exp. 1, MFI ratio CHO-18.2 over CHO-18.1
[9] = biological target: T1, human Claudin 18.2 (CLDN18.2); test: FACS Exp. 2, MFI ratio CHO-18.2 over CHO-18.1

% ADCC @ 6.67 nM, NCI-N87-CLDN18.2, FcR-TANK [1]: 13.5% | ADCC EC50, NCI-N87-CLDN18.2, FcR-TANK [1]: 0.4 nM | ADCC EC50, NUGC4-CLDN18.2, PBMC [2]: 13.3 nM | CDC EC50, human serum, CHO-CLDN18.2 [3]: 1.48 nM | EC50 [4]: 3.5 nM
B1: 364D1A7-H1L1 (antibody, V domains shown)
VH: EVQLVESGGGLVQPGGSLRLSCAASGFTFSSFGMHWVRQAPGKGLEWVSYISSGSGSIYYADTVKGRFTISRDNAKNSLYLQMNSLRAEDTAVYYCATSYYYGNALEYWGQGTTVTVSS
VL: DIVMTQSPDSLAVSLGERATINCKSSQSLFNVGNQKNYLTWYQQKPGQPPKLLIYWASTRKSGVPDRFSGSGSGTDFTLTISSLQAEDVAVYYCQNVYSYPLTFGGGTKVEIK
notes: humanized IgG; constant regions not specified
% specific cytotoxicity @ 6.67 nM, NUGC4-CLDN18.2, PBMC [2]: 26.7%

% ADCC @ 6.67 nM, NCI-N87-CLDN18.2, FcR-TANK [1]: 15.1% | ADCC EC50, NCI-N87-CLDN18.2, FcR-TANK [1]: 0.47 nM | ADCC EC50, NUGC4-CLDN18.2, PBMC [2]: 8.98 nM | CDC EC50, human serum, CHO-CLDN18.2 [3]: 0.78 nM | EC50 [5]: 2.31 nM
B2: 413H9F8-H1L1 (antibody, V domains shown)
VH: EVQLVESGGGLVQPGGSLRLSCAASGFTFSSFGMHWVRQAPGKGLEWVSYISSGSSPIYYVDKLKGRFTISRDNAKNSLYLQMNSLRAEDTAVYYCARAGYAVRNALDYWGQGTLVTVSS
VL: B1 VL with F30L, T40A, W56G, K61E, V97D, Y98L, S99F
notes: as for B1
% specific cytotoxicity @ 6.67 nM, NUGC4-CLDN18.2, PBMC [2]: 27%

% ADCC @ 6.67 nM, NCI-N87-CLDN18.2, FcR-TANK [1]: 10.8% | ADCC EC50, NCI-N87-CLDN18.2, FcR-TANK [1]: 0.41 nM | ADCC EC50, NUGC4-CLDN18.2, PBMC [2]: 11.3 nM | CDC EC50, human serum, CHO-CLDN18.2 [3]: 1.28 nM | EC50 [4]: 4.22 nM
B3: 364D1A7-H3L1 (antibody, V domains shown)
VH: B1 VH with S49A, I70L, A75P
VL: B1 VL
notes: as for B1
% specific cytotoxicity @ 6.67 nM, NUGC4-CLDN18.2, PBMC [2]: 26.2%

% ADCC @ 6.67 nM, NCI-N87-CLDN18.2, FcR-TANK [1]: 11.1% | ADCC EC50, NCI-N87-CLDN18.2, FcR-TANK [1]: 0.22 nM | ADCC EC50, NUGC4-CLDN18.2, PBMC [2]: 5.86 nM | EC50 [6]: 2.09 nM
B4: 413H9F8-cp3 (antibody, V domains shown)
VH: B2 VH with E1D, S49A, I70V
VL: EIVMTQSPPTLSLSPGERVTLSCKSSQSLLNVGNQKNYLAWYQQKPGQAPRLLIYGASTRESGIPARFSGSGSGTDFTLTISSLQPEDFAVYYCQNDLFYPLTFGGGTKVEIK
notes: as for B1
% specific cytotoxicity @ 6.67 nM, NUGC4-CLDN18.2, PBMC [2]: 30.5%

EC50 [6]: 3.69 nM
B5: 413H9F8-cp10 (antibody, V domains shown)
VH: B2 VH
VL: B4 VL with E1D, R51K, A66D, Y93F
notes: as for B1

EC50 [6]: 3.01 nM
B6: 413H9F8-cp12 (antibody, V domains shown)
VH: B2 VH with E1D, S49A, I70V
VL: B4 VL with E1D, R51K, A66D, Y93F
notes: as for B1

% ADCC @ 6.67 nM, NCI-N87-CLDN18.2, FcR-TANK [1]: 14.1% | ADCC EC50, NCI-N87-CLDN18.2, FcR-TANK [1]: 0.27 nM | ADCC EC50, NUGC4-CLDN18.2, PBMC [2]: 7.75 nM | EC50 [6]: 2.54 nM
B7: 413H9F8-cp5 (antibody, V domains shown)
VH: B2 VH with E1D, S49A
VL: B4 VL with E1D, A66D
notes: as for B1
% specific cytotoxicity @ 6.67 nM, NUGC4-CLDN18.2, PBMC [2]: 29.6%

% ADCC @ 6.67 nM, NCI-N87-CLDN18.2, FcR-TANK [1]: 13.1% | ADCC EC50, NCI-N87-CLDN18.2, FcR-TANK [1]: 0.27 nM | ADCC EC50, NUGC4-CLDN18.2, PBMC [2]: 8.85 nM | EC50 [6]: 2.72 nM
B8: 413H9F8-cp8 (antibody, V domains shown)
VH: B2 VH with E1D, S49A
VL: B4 VL with E1D, R51K, A66D
notes: as for B1
% specific cytotoxicity @ 6.67 nM, NUGC4-CLDN18.2, PBMC [2]: 27.7%

EC50 [6]: 2.61 nM
B9: 413H9F8-cp11 (antibody, V domains shown)
VH: B2 VH with E1D, S49A
VL: B4 VL with E1D, R51K, A66D, Y93F
notes: humanized IgG; constant regions not specified; also called 413H9F8-cp811

EC50 [6]: 2.21 nM
B10: 413H9F8-cp9 (antibody, V domains shown)
VH: B2 VH with E1D, S49A, I70V
VL: B4 VL with E1D, R51K, A66D
notes: as for B1

% ADCC @ 6.67 nM, NCI-N87-CLDN18.2, FcR-TANK [1]: 13.3% | ADCC EC50, NCI-N87-CLDN18.2, FcR-TANK [1]: 0.28 nM | ADCC EC50, NUGC4-CLDN18.2, PBMC [2]: 6.68 nM | EC50 [6]: 2.47 nM
B11: 413H9F8-cp7 (antibody, V domains shown)
VH: B2 VH
VL: B4 VL with E1D, R51K, A66D
notes: as for B1
% specific cytotoxicity @ 6.67 nM, NUGC4-CLDN18.2, PBMC [2]: 29.7%

MFI_SNU620 (@30 ug/ml) [7]: 1310 MFI | MFI_CHO-18.2/CHO-18.1 (@30 ug/ml) [8]: 812 | MFI_CHO-18.2/CHO-18.1 (@30 ug/ml) [9]: 1010
B12: hz282-19 (antibody, V domains shown)
VH: QVQLQESGPGLVKPSETLSLTCTVSGFSLTSYNVYWIRQPPGKGLEWIGVIWNTGATRYNSALKSRVTISKDTSKSQVSLKLSSVTAADTAVYYCARDSAMPAIPFAYWGQGTLVTVSS
VL: DIVMTQSPSSLSASVGDRVTINCKSSQSLFGSVRQKNYLAWYQQKPGKSPKLLIYLASTRESGVPDRFSGSGSGTDFTLTISSLQPEDFAKYYCQQYYDIPWTFGGGTKVEIK
notes: as for B1

MFI_SNU620 (@30 ug/ml) [7]: 1220 MFI | MFI_CHO-18.2/CHO-18.1 (@30 ug/ml) [8]: 1230 | MFI_CHO-18.2/CHO-18.1 (@30 ug/ml) [9]: 1940
B13: hz282-12 (antibody, V domains shown)
VH: B12 VH with S25A
VL: B12 VL with V3Q, N22T, S49A, D66S, K91T
notes: as for B1

MFI_SNU620 (@30 ug/ml) [7]: 1230 MFI | MFI_CHO-18.2/CHO-18.1 (@30 ug/ml) [8]: 1380 | MFI_CHO-18.2/CHO-18.1 (@30 ug/ml) [9]: 2020
B14: hz282-15 (antibody, V domains shown)
VH: B12 VH
VL: B12 VL with V3Q, N22T
notes: as for B1

MFI_SNU620 (@30 ug/ml) [7]: 1080 MFI | MFI_CHO-18.2/CHO-18.1 (@30 ug/ml) [8]: 1240 | MFI_CHO-18.2/CHO-18.1 (@30 ug/ml) [9]: 2540
B15: hz282-4 (antibody, V domains shown)
VH: B12 VH with S25A
VL: DIVMTQSPDSLAVSLGERATINCKSSQSLFGSVRQKNYLAWYQQKPGQPPKLLIYLASTRESGVPDRFSGSGSGTDFTLTISSLQAEDVAVYYCQQYYDIPWTFGGGTKVEIK
notes: as for B1

MFI_SNU620 (@30 ug/ml) [7]: 1340 MFI | EC50 [6]: 3.68 nM | EC50 [5]: 3.17 nM | EC50 [4]: 2.75 nM | MFI_CHO-18.2/CHO-18.1 (@30 ug/ml) [8]: 1190 | MFI_CHO-18.2/CHO-18.1 (@30 ug/ml) [9]: 2000
B16: hz282-11 (antibody, V domains shown)
VH: B12 VH
VL: B12 VL with V3Q, N22T, S49A, D66S, K91T
notes: humanized IgG; constant regions not specified; also called humanized 282A12(T62A) (hz282-11)

MFI_SNU620 (@30 ug/ml) [7]: 1150 MFI | MFI_CHO-18.2/CHO-18.1 (@30 ug/ml) [8]: 1100 | MFI_CHO-18.2/CHO-18.1 (@30 ug/ml) [9]: 1670
B17: hz282-3 (antibody, V domains shown)
VH: B12 VH
VL: B15 VL
notes: as for B1

MFI_SNU620 (@30 ug/ml) [7]: 1310 MFI | MFI_CHO-18.2/CHO-18.1 (@30 ug/ml) [8]: 808 | MFI_CHO-18.2/CHO-18.1 (@30 ug/ml) [9]: 1500
B18: hz282-10 (antibody, V domains shown)
VH: B12 VH with S76N
VL: B12 VL with V3Q, N22T, S49A, D66S, K91T
notes: as for B1

MFI_SNU620 (@30 ug/ml) [7]: 1240 MFI | MFI_CHO-18.2/CHO-18.1 (@30 ug/ml) [8]: 981 | MFI_CHO-18.2/CHO-18.1 (@30 ug/ml) [9]: 987
B19: hz282-20 (antibody, V domains shown)
VH: B12 VH with S25A
VL: B12 VL
notes: as for B1

MFI_SNU620 (@30 ug/ml) [7]: 1190 MFI | MFI_CHO-18.2/CHO-18.1 (@30 ug/ml) [8]: 960 | MFI_CHO-18.2/CHO-18.1 (@30 ug/ml) [9]: 1610
B20: hz282-8 (antibody, V domains shown)
VH: B12 VH with S25A
VL: B15 VL with P49S, V91K
notes: as for B1
